Measurements taken from patent publication CN107880130A (SHENZHEN GUOCHUANG NANO ANTIBODY TECH CO LTD, dated 2018).

Columns and labels:
癌胚抗原 (CEA, CEACAM5) = 癌胚抗原 (CEA, CEACAM5) (UniProt P06731); assay: SPR (Biacore T100), antibody captured by Protein A, antigen injected at 100μg/ml
AFP = target: T1, AFP (UniProt P02771 19-609); assay: SPR (Biacore T100), antibody captured by Protein A, antigen injected
T1 sequence (looked up): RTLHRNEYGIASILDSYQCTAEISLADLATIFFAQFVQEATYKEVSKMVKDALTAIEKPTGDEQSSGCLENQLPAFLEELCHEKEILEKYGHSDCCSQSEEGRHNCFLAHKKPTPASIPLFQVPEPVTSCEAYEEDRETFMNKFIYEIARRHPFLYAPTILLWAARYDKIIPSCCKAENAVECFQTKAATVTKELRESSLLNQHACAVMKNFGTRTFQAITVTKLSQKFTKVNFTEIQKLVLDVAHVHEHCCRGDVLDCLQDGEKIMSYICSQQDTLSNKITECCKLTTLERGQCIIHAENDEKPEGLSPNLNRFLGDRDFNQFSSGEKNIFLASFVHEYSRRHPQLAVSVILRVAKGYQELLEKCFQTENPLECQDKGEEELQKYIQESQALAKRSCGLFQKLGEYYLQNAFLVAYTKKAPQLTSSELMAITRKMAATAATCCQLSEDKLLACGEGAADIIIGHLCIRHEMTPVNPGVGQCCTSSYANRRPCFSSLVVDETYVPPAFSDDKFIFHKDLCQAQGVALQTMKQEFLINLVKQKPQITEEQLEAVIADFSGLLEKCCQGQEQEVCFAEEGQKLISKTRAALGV

CEACAM8 = target: T2, CEACAM8 (UniProt P31997 35-320, limits assumed); assay: as above
T2 sequence (looked up): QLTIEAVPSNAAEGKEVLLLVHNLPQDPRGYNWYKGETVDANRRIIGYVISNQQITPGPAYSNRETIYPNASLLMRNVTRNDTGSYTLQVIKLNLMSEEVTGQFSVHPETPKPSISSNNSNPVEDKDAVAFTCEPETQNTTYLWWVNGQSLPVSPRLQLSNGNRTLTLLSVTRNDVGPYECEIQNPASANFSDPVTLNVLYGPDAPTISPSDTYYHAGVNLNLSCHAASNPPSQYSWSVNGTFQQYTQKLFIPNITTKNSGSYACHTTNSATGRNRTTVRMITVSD

CEACAM3 = target: T3, CEACAM3 (UniProt P40198 35-155, limits assumed); assay: as above
T3 sequence (looked up): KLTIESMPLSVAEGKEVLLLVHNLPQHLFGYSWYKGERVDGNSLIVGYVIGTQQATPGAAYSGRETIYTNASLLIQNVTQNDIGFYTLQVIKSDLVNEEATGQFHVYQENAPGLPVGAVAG

HE4 = target: T4, HE4 (UniProt Q14508 31-124); assay: as above
T4 sequence (looked up): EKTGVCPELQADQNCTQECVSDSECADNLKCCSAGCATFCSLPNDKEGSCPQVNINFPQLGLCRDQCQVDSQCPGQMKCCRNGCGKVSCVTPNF

CEACAM6 = target: T5, CEACAM6 (UniProt P40199 35-320, limits assumed); assay: as above
T5 sequence (looked up): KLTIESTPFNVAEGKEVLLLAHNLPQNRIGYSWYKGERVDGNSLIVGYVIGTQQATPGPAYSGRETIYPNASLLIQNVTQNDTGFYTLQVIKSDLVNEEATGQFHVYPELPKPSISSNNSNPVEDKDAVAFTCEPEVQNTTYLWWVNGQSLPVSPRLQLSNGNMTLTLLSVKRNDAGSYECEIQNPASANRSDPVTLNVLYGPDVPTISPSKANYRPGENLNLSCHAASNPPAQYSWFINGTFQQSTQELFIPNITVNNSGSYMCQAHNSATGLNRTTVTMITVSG

CEACAM1 = target: T6, CEACAM1 (UniProt P13688 35-428, limits assumed); assay: as above
T6 sequence (looked up): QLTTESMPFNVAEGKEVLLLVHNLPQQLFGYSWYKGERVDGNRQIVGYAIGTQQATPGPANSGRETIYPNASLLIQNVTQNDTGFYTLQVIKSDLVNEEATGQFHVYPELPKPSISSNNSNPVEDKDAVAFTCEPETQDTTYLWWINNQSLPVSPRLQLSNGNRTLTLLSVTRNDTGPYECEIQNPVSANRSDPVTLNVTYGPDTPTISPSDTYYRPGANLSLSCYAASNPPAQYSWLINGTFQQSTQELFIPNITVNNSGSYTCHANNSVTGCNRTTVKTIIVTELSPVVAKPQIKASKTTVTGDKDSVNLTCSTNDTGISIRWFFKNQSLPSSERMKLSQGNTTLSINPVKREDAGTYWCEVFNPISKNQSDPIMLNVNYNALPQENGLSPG

B1: 2D5 连接至带有恒定区的载体 (2D5 nanobody with constant region) (Fc fusion)
chain: ESGGGLVQAGGSLRLSCVASGRTFSSHPMGWFRQAPGKEREFVAGISWSGGSTHYADSVKGRFTISRDTAKNTVYLQMNSLKPEDTAVYYCNAALSERTPIATMPSQYDYWGQGT
notes: not shown: constant region from the vector
癌胚抗原 (CEA, CEACAM5)
  结合 (SPR binding response): 53.3
AFP
  binding result: no binding (tested: 100μg/ml)
CEACAM8
  binding result: no binding (tested: 100μg/ml)
CEACAM3
  binding result: no binding (tested: 100μg/ml)
HE4
  binding result: no binding (tested: 100μg/ml)
CEACAM6
  binding result: no binding (tested: 100μg/ml)
CEACAM1
  binding result: no binding (tested: 100μg/ml)
